Data on 21 sequences can be found in the DeepSol protein solubility set.

This data set is described as follows: soluble on expression in E. coli; label from the status in PepcDB or PDB records.
As for “MGSDKIHHHHHHMSSTHTGIEWTDKTWNPTTGCDKVSPGCRYCYAEALTERFPQSFPTGFKLNLHPERLEQPKRWRTPSRIFVNSMSDLFHEDVPFSFLQEIFSIMRETPWHIYQILTKREENLVDLAPKLEWTENIWMGVSVESQRYTYRIDALRKVPAAVRFLSCEPLLESLNLDLQNIDWVIVGGESGYNHRPVKPEWIREILQQTREAEVAFFFKQWGGKHSKAGGRMLDDHTWEEMPKAWRKHIIKWQKKFHGQPKLHELEQKYLMSTK”, the “soluble on expression in E. coli” value is on record as “not soluble”.

As to “MNVFAFSISGGGSERSYKETEKTSAMTTTHSTKLQPSQAILFKMREDAPPLNLTEEMPPPFPTKANYLIHPVRLEHHHHHH”, the “soluble on expression in E. coli” value was “not soluble”.

As to “MNTAHGSDVTRPLDWLVSNFASDVPGVSHAVLVSADGLLMAASAHLPIDRAEQLAAVTSGLASLSAGVSRLFEGGGVLQSVVEMQHGYLLLMSVGDGSHLATLTDAECDIGQVGYEMAILVDRVGASVQATARTPQGL”, the “soluble on expression in E. coli” value is given as “not soluble”.

Turning to “SLAPQPLKKGEKAIDVASVVRQKMPASVKDRDAWAKDLATTFESQGLAPTLENVCSVLAVAQQESNYQADPAVPGLSKIAWQEIDRRAERMHIPAFLVHTALKIKSPNGKSYSERLDSVRTEKQLSAIFDDLISMVPMGQTLFGSLNPVRTGGPMQVSIAFAEQHTKGYPWKMDGTVRQEVFSRRGGLWFGTYHLLNYPASYSAPIYRFADFNAGWYASRNAAFQNAVSKASGVKLALDGDLIRYDSKEPGKTELATRKLAGKLGMSDSEIRRQLEKGDSFSFEETALYKKVYQLAEAKTGKSLPREMLPGIQLESPKITRNLTTAWFAKRVDERRARCMKQ”, the “soluble on expression in E. coli” value is given as “soluble”.

On to “MKKRQSCRSFDYSKPVSKEDLISILEAGRLSPSACNSQPYEVFVAQGEKAKIIADAKMGSFNKFIDDCNTFLVIAEDNYSLPAKIGSLIKKVDFKAIDIGILTANLVNAASALNLETCILGVFDEKRIQKLIERKKRIRLVIALGYPKEGYPLREKTRKDFDDNMHFLA”, for which the “soluble on expression in E. coli” value is “not soluble”.

“MGSDKIHHHHHHMPIDLREFYQASDPSRTLFVNNSSDGKYYIDFSSVRGGDILGKLKQKITFFKPNEPTCTLFTGHIGCGKSTELLRLQAELEKLGFHVVYFESSDDLEMTDVDIADVLLAIARRVSQSLDKIILESPNKFNELLQGAWKVLNSEVTGVKVKVPNVGDFGVTSEKEKLSLSVGIGEITAKMKNDPTLREKLNQYLAPQKTKLLEAINQELLEPAIAKLKQQGKNGLVVIVDNLDRIDNRAKPWGRPQQEYLFVDQGEFLTKLNCHLIYTMPLSLKFSNDYGMLTQRFPEDPKVLPMVPVHWSDGSLHAQGMALMQQMVLARAFPDMTPEERLNKVTEIFDSAASLERLCQMSGGHVRDVLRLLNTWIMEEMSLPLTRDTLEQVIRSRQNEIMLPISEDEWQLLRHVKEKKKVSDDHGYQKLIRSRFVFEYRDCGESWFDVNPVLAEAKELQ”: the “soluble on expression in E. coli” value is “not soluble”.

As to “MGSDKIHHHHHHMVRLRPYRSCDAKYIVTWISSEEEFVKWCANLITYPFTEESMNKIQESFENNEKGWLFTAIDKKGTPIGFMSMSKADYENDSVHLGFIIVDSSKRSSGFGKQMINQAIKYAFEILNVSRVTLKVFDNNSTAHYCYQNVGFVDEKYMEKEFPYKDEMWGCYCMAIQK”, the “soluble on expression in E. coli” value is on record as “not soluble”.

On to “TEHLTLAFKIERPYDKVLKTISKKNLKNYIKETFNFFKSGYMKQNYLGSENDVIELDDVANIMFYGEGEVGDNHQKFMLIFDTGSANLWVPSKKCNSSGCSIKNLYDSSKSKSYEKDGTKVDITYGSGTVKGFFSKDLVTLGHLSMPYKFIEVTDTDDLEPIYSSVEFDGILGLGWKDLSIGSIDPIVVELKNQNKIDNALFTFYLPVHDVHAGYLTIGGIEEKFYEGNITYEKLNHDLYWQIDLDVHFGKQTMEKANVIVDSGTTTITAPSEFLNKFFANLNVIKVPFLPFYVTTCDNKEMPTLEFKSANNTYTLEPEYYMNPILEVDDTLCMITMLPVDIDSNTFILGDPFMRKYFTVFDYDKESVGFAIAKN”, for which the “soluble on expression in E. coli” value was “soluble”.

For the sequence “MGSDKIHHHHHHMKIIHVIASIDPKHGGLQAVAMRLAAAQAGLGLDVNIVSYGDAAIEAQVKEIGRSIPHFENIHWHLLPPAGRLETLFCFRGRRMLKALLKDASFMHIHGVWEPFLLYASKLARAAGVPYCICPAGMLDHWSLGQRSWKKKIALMLCYRRMLNEAAFLHLLNVDEMAAVETLNFQARNLIIPNGVFAEEFDPLPARGHFRQKIALAHGRRYILFLSRLHIKKGIDILASAFAAICETYVDVDLVVAGPPGGAEGHFMHLVKKLNIRHRVFMVGAIYGKAKLEAMVDADCFCLPSRQEGFSMAITEALACGTPVVITDQCHFPEVGSADAGLIVSVDAAEVAKALASMLGNPARARTMGENGRRLVLEKFTWPAIAHATLEGYRLSALEAAAS”, the “soluble on expression in E. coli” value was “not soluble”.

For the sequence “LGTQMGIQTPIRIEAFDNSNIQGVDPVSAMVTFVDGKPDKKNYRKYKIKTVKGPDDYKSMREVVRRRYSRVLNEGLPLPDLIIVDGGKGHMNGVIDVLQNELGLDIPVAGLQKNDKHQTSELLYGASAEIVPLKKNSQAFYLLHRIQDEVHRFAI”, the “soluble on expression in E. coli” value is given as “not soluble”.

With “GMKYKAAIFDMDGTILDTSADLTSALNYAFEQTGHRHDFTVEDIKNFFGSGVVVAVTRALAYEAGSSRESLVAFGTKDEQIPEAVTQTEVNRVLEVFKPYYADHCQIKTGPFPGILDLMKNLRQKGVKLAVVSNKPNEAVQVLVEELFPGSFDFALGEKSGIRRKPAPDMTSECVKVLGVPRDKCVYIGDSEIDIQTARNSEMDEIAVNWGFRSVPFLQKHGATVIVDTAEKLEEAILGE”, the “soluble on expression in E. coli” value was “soluble”.

As to NSSFTPSTVPNINFSGLNGGITNTATNALRPSDIFGANA, the “soluble on expression in E. coli” value is given as “soluble”.

Consider “MPHVICEPCIGVKDQSCVEVCPVECIYDGGDQFYIHPEECIDCGACVPACPVNAIYPEEDVPEQWKSYIEKNRKLAGLE”, for which the “soluble on expression in E. coli” value is on record as “soluble”.

For the sequence “HFNVLADTPSGLVPLHLRSPQVPAAQQMLNFPEKNKEKPVDLQNFGLRTDIYSKKTLAKSKGASAGREWTEQETLLLLEALEMYKDDWNKVSEHVGSRTQDECILHFLRLPIEDPYLENSDASLGPLAYQPVPFSQSGNPVMSTVAFLASVVDPRVASAAAKAALEEFSRVREEVPLELVEAHVKKVQEAARASGKVDPTYGLESSCIAGTGPDEPEKLEGAEEEKMEADPDGQQPEKAENKVENETDEGDKAQDGENEKNSEKEQDSEVSEDTKSEEKETEENKELTDTCKERESDTGKKKVEHEISEGNVATAAAAALASAATKAKHLAAVEERKIKSLVALLVETQMKKLEIKLRHFEELETIMDREKEALEQQRQQLLTERQNFHMEQLKYAELRARQQMEQQQHGQNPQQAHQHSGGPGLAPLGAAGHPGMMPHQQPPPYPLMHHQMPPPHPPQPGQIPGPGSMMPGQHMPGRMIPTVAANIHPSGSGPTPPGMPPMPGNILGPRVPLTAPNGMYPPPPQQQPPPPPPADGVPPPPAPGPPASAAP”, the “soluble on expression in E. coli” value is “soluble”.

Consider “MGTRSPHIVLRNATYLNSYIREWMQANIWIYDDRIIYVGEKLPEQLHECEVIDCDGKYVVPSYIEPHAHPYQLYNPETLANHAMQFGTTTFINDNLEHHHHHH”, for which the “soluble on expression in E. coli” value is recorded as “soluble”.

As to “MNKKEIFKLAKGFRGRAKNCIRIARERVEKALQYSYRDRRNKKREMRGLWIERINAGSRQHGVNYGNFIHGLMKENIQLNRKVLSELSMHEPYSFKALVDVSRKSFPGNKNVVQASRKVDISSINA”, the “soluble on expression in E. coli” value is reported as “soluble”.

Regarding “RALDTEDIQKVFTKLPQSSAVTSDMRRTQELFVLMFLLRGLPFVDLAYLRKSDLHDNVITYRRRKTGRPLSVTLTPEAMAILKRYMNRDTSSPYLFPLLNSREGTKEAYHEYQLALRNFNRQLMLLGEMLGLGDKLSSYTARHTWATTAYYCEIHPGVISEAMGHSSITVTETYLKPFRNKKIDEANKKVVDFIKRSIPIAMC”, the “soluble on expression in E. coli” value is on record as “not soluble”.

As to “MLEEFLPSLIAHTPRQSARLIVADNGSTDDSVEFLRRQYPQVELILFPENYGFAEGYNRAIAQTECDCVVLLNSDVEVSEGWLDAPLALLQERSDVAAVQPKIRALRDKHAFEYAGAAGGYVDRWGYPFCRGRIFDAVETDTGQYDDIAEVFWASGAALFIRRQVYMAVGGLDPRFFAHQEEIDLCWRLHSRGWR”, the “soluble on expression in E. coli” value is given as “not soluble”.

“MPPTGIFFNVNGKDIKEENVDPELTLAYYLRNKLGLRGTKLGCEEGVCGSCTVVLGTWDDSLNKAVYSAVNACLVPLFHVHKTFVITVEGVGSRDKIHPIQDRMARGHAVQCGFCSPGFVMSAYALLRNHPNPTIEQINAAIRANLCRCTGYRPILEALYSFSSSGGGCCGGKKAGAGCCKDLSSEDEAYEKLTSFNDFPEYDPSQEIIFPPSLRIFVDSENPVTLKGDRIELLLPKSIEQFKEFKKDRTVISSGLITRFIATRNPKEFSQKWITTKYVKEFNEVIENPETVVIGAAVNIQKMSDILSRSLSQNIGKEVDAFIKKFSSPQIANFATWTGGIVSGAKSSISVSDLLLLFNVLNAKLTLLTDSGDLTQVNIEEFVEKKLFATNTIVNTVFSSSITGQLFCLKLGETSEQDSTSFNFAALVGNNISRIFVGLGGPPKRLTSLEEHIFALKNLDVPDLCKTSGMGENKNIKIALTRLSKFMKNVEKTAETVDGLNYLQYFKPTERKSVGRPLANYFNERAITGEALYVNDIQTYNPVHLGFVLSTVPHAEILSIDATEALKLEGVVGFFGASDVPGNNSPGLQISNMNLPDDATIFADKKVESVGQVVGVIAANDVLLARRAAKLVKLEYKELPALVELKDAIVAKSLLGKVRHFGKSEYLVNESLVHSYKVLEGESSLGSQEHFYLETQSSLNYRIVHCSTQGTSFTQLMVAETMKIPAHKIIVKTKRMGGAFGGKLNNASWIACICSVVAKKLNRPTYGVGINSDGKVQGIHHQAWLNGGWSKDHTEGVTMVMGQFVDDVYNMGTVRYDGYPVKTNTNSNTAFRGYGNPQAKLVSEGVMRRIAREVGKSTEEVKKLNFAFEGEKRYLSGNIYSDAHIECWEYCTRWSDFEKRKETIENFNKTSKIVKRGIAMSSVRLALSHPGPPGHGVASLMINLDGSIQLSIGGTEMGQGLNQKMLQVCSEALKRPIDTITIVDCSTDKITNAPETGASHNADTNGLAVLACCERIMSRLQPIIDKNDGDWEKSIRDAYGAYVPLQCTEYGSVDREKLSIGEFEYPYNTTGACAVEMEVDTMTGYNRLLRVDIVMDVGESLNPAIDIGQIEGAFMQGYGLVTCEKITFNKETGQLNQNSAGQYKIPKSSDVPKDFRVKLLGINKANGAKVYSSKGIGEPPLMMSCGAVHSCIMNCIDDWRKENGIDKFVDTISPLSADKIQELCSCNN”: the “soluble on expression in E. coli” value was “not soluble”.

Regarding “MGSDKIHHHHHHENLYFQGMQVIKQKLTATCAQLTGYLHQPDTNAHQTNLPAIIIVPGGSYTHIPVAQAESLAMAFAGHGYQAFYLEYTLLTDQQPLGLAPVLDLGRAVNLLRQHAAEWHIDPQQITPAGFSVGGHIVALYNDYWATRVATELNVTPAMLKPNNVVLGYPVISPLLGFPKDDATLATWTPTPNELAADQHVNSDNQPTFIWTTADDPIVPATNTLAYATALATAKIPYELHVFKHGPHGLALANAQTAWKPDANQPHVAHWLTLALEWLADNR”, the “soluble on expression in E. coli” value was “soluble”.

With “MVKLENKPTIISTGTIVGPKEGEGPLKDYFDMIMTDDLYGEKTWELAESKMVETASQQAIQKAGKKLSDVNYMLGGDLINQIVPASFAARELAIPFLGIYGACSTMAEGLCIGSMLIDGGFADLVLSGTSSHYCTAERQFRFPLELGNQKPMTAQWTVTGAGSVLLAPNGDGPKVKYVTVGKVIDEGIDDGNNMGPAMAPAAIDTIYSYFEDTNDDPNSFDIIATGDLGTLGKQIAEDFLKEKGVDISKVYTDCGIEMFNLKEQDVHCGGSGCGCSATVFAGYIYDKLRKKEFNKVMLVSTGALLSPTSTLQKQTIPCVAHAVVIVNELEHHHHHH”, the “soluble on expression in E. coli” value is recorded as “not soluble”.
